Results reported in the supplement of paper PMC9732359.
± gives the uncertainty stated by the source.

Assay: protein stability index of a GFP-peptide fusion (yeast GPS) (PSI 1-4); higher = more stable; sorted into four equal gates, so the index is relative within each strain
Procedure, shortened: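 Yeast carrying a pooled library were grown to mid-log phase in leucine-free medium. Each library plasmid expresses Cherry and has a tiled 17-residue yeast protein peptide fused downstream of GFP. Cells were sorted into four equal gates by GFP/Cherry ratio, and plasmids from each gate were PCR-amplified, Illumina-sequenced and assigned to strains by barcode. Summing, across gates, the read frequency times the gate number gave each peptide's protein stability index.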

Sequence	protein stability index (doa10∆)	protein stability index (pdr5∆)	protein stability index (san1∆)	protein stability index (ubr1∆)
QGKPYISLPKGKGIKLS [RPS4A]	3.29 ± 0.07	3.33 ± 0.081	2.84 ± 0.06	2.45 ± 0.073
EQQVAEEATTEEAGEEE [RPS0A]	2.89 ± 0.14	2.82 ± 0.24	2.6 ± 0.19	–
GDIKVLDSNFNLQREID [RPN14]	2.96 ± 0.12	3.11 ± 0.091	2.93 ± 0.085	3.26 ± 0.082
STSIQYHGISKNDNIKK [POP6]	2.79 ± 0.068	2.9 ± 0.055	2.89 ± 0.043	2.92 ± 0.05
LGMLDDNKMDSVKEDVK [SMC4]	2.12 ± 0.15	2.61 ± 0.13	2.09 ± 0.24	–
TTLNIKVEKRVLGLTIL [SMB1]	1.86 ± 0.075	2.79 ± 0.093	2.39 ± 0.14	2.27 ± 0.08
RIKNEQSALSQIIRLFY [ISW2]	3.08 ± 0.1	3.09 ± 0.1	2.76 ± 0.076	3.06 ± 0.073
ARFRSIHILKVAEIEKT [RPL20A]	1.2 ± 0.067	1.16 ± 0.051	1.14 ± 0.088	1.08 ± 0.048
LLTPDIGAVYSGMGPDY [PRE8]	1.32 ± 0.055	1.72 ± 0.074	1.2 ± 0.1	1.52 ± 0.081
SLHTKNVFGTLQRHSGI [YLR018C/POM34]	2.56 ± 0.066	2.5 ± 0.071	2.31 ± 0.15	2.97 ± 0.06
GASNGDDSNGGNGEGLG [BRN1]	3.42 ± 0.14	2.83 ± 0.23	3.68 ± 0.16	3.19 ± 0.084
AKRLIHGTSTSAEDEEN [CDC53]	2.84 ± 0.14	2.44 ± 0.26	–	3.57 ± 0.19
LLYADSLTAEAMTAAEH [CYT1]	2.34 ± 0.056	2.67 ± 0.054	2.78 ± 0.057	2.58 ± 0.041
MTMASKSLEVVNADTVG [NSL1]	2.96 ± 0.078	2.82 ± 0.075	2.7 ± 0.068	2.38 ± 0.053
HVRKVKLLKQPKFDVGA [RPS1A]	2.21 ± 0.062	2.5 ± 0.085	2.28 ± 0.073	2.2 ± 0.067
GKTTSCTKLAVYYSKRG [SRP54]	–	2.76 ± 0.19	2.18 ± 0.22	2.51 ± 0.098
FITTLLKSLYSFFNISP [SIN4]	2.26 ± 0.042	1.5 ± 0.037	1.46 ± 0.057	1.53 ± 0.034
MDCTKEEEATMTTSAVS [YIL149C/MLP2]	3.35 ± 0.08	3.24 ± 0.065	3.28 ± 0.06	3.12 ± 0.059
MPDMNEMMKMMQDPQMQ [SRP54]	3.22 ± 0.19	3.45 ± 0.21	3.5 ± 0.083	3.33 ± 0.084
SLLTLVGSVTYQVDEDV [YJL039C/NUP192]	1.8 ± 0.1	1.67 ± 0.13	2.66 ± 0.098	1.23 ± 0.14
QMAKDVTTFLNWCAEPE [CYT1]	3.4 ± 0.068	3.25 ± 0.067	3.04 ± 0.098	3.46 ± 0.073
ERAARVVKGRVEKTLLS [RPO31]	3.37 ± 0.19	3.27 ± 0.18	–	3.5 ± 0.1
KKTATEPKQKANAVQNN [SRP21]	3.06 ± 0.086	3.19 ± 0.082	–	3.24 ± 0.12
LAREVPQQSGKKLLINK [DPB4]	1.43 ± 0.092	2.06 ± 0.063	1.86 ± 0.1	1.58 ± 0.067
LESVGIEIEDEKVSSVL [RPP2A]	3.04 ± 0.075	2.67 ± 0.12	2.77 ± 0.12	2.78 ± 0.094
ANTPSIPTNPVDNENNK [SWI3]	2.62 ± 0.08	2.8 ± 0.068	2.68 ± 0.053	3.08 ± 0.071

Sequence	protein stability index (doa10∆)	protein stability index (pdr5∆)	protein stability index (san1∆)	protein stability index (ubr1∆)
VTRFTTWNGSPFDNSTE [YJL039C/NUP192]	2.44 ± 0.079	2.17 ± 0.052	2.3 ± 0.099	2.41 ± 0.067
KPAEKNNNETSKPAFSF [YJL041W/NSP1]	1.65 ± 0.15	1.98 ± 0.06	2.24 ± 0.16	1.64 ± 0.11
IEDLWQFLYEKHYKNIP [RPC82]	2.23 ± 0.088	1.53 ± 0.078	1.62 ± 0.19	2.1 ± 0.071
TVLQKNSLLLDSTPEEV [YML103C/NUP188]	2 ± 0.052	2.28 ± 0.063	1.38 ± 0.079	1.42 ± 0.049
TGLSQIPNRRFTLWWSP [PRP8]	3.04 ± 0.058	2.78 ± 0.056	1.87 ± 0.048	2.52 ± 0.042
IAFLVGLVNPKTVQSMT [SWI3]	2.46 ± 0.068	2.02 ± 0.059	2.11 ± 0.07	2.56 ± 0.041
VDSKTKEPVDDKDVKAK [FAS2]	2.31 ± 0.24	–	2.28 ± 0.13	3.28 ± 0.16
GKSTADVKSSDSLKLNS [YJL041W/NSP1]	3.23 ± 0.14	3.35 ± 0.12	2.96 ± 0.17	3.32 ± 0.14
LFGNNAGNTTTGGGLFG [YGL172W/NUP49]	2.95 ± 0.18	3.37 ± 0.25	–	3.36 ± 0.17
QARDNSQVFGVARIYAS [RPS14A]	1.9 ± 0.066	2.12 ± 0.057	1.84 ± 0.087	2.23 ± 0.045
QPSSSRYNGGNDNIGAN [SMB1]	3.2 ± 0.091	3.49 ± 0.08	3.23 ± 0.049	3.37 ± 0.075
DLQNLNLNTDKLKNNAS [YJL039C/NUP192]	2.54 ± 0.11	2.65 ± 0.061	2.94 ± 0.086	2.5 ± 0.057
DPRIAPLRGALATYGLT [FAS2]	2.37 ± 0.1	2.51 ± 0.16	2.38 ± 0.13	2.04 ± 0.056
TDAYLDQYLWYEADQRK [PRP8]	3.18 ± 0.12	3.21 ± 0.17	3.02 ± 0.18	3.12 ± 0.081
QELGFCELLKLTNEDPP [SSN2]	3 ± 0.12	3.12 ± 0.069	2.83 ± 0.1	3.02 ± 0.066
SFNVKENQPFHGIKDIP [AAR2]	2.73 ± 0.16	3.17 ± 0.19	2.98 ± 0.11	2.34 ± 0.21
PLSVATELMNRSPLVTP [SRP72]	2.14 ± 0.068	2.48 ± 0.069	2.4 ± 0.06	2.03 ± 0.06
STVQTPITASMAAALPN [PGD1]	1.59 ± 0.074	1.55 ± 0.099	1.37 ± 0.11	1.4 ± 0.05
VIGLDSEHDKKRLSAAL [YML103C/NUP188]	3.5 ± 0.23	3.69 ± 0.19	3.14 ± 0.13	3.67 ± 0.14
KARFVSKLAEEKIRAAG [RPL28]	2.508 ± 0.025	2.66 ± 0.027	2.6 ± 0.028	2.793 ± 0.024
DTSTQAYEEEEENEDND [NUT1]	3.24 ± 0.13	3.5 ± 0.17	3.54 ± 0.18	3.39 ± 0.12
VSNISCLTGTVAARMFH [ECM29]	1.66 ± 0.042	1.59 ± 0.039	2.28 ± 0.087	2.19 ± 0.045
IQRLRLLREKQRVRNMR [YOR098C/NUP1]	–	1.28 ± 0.086	–	1.41 ± 0.26
MLAAQDVAAKCKEVGIT [RPS14A]	2.38 ± 0.057	2.38 ± 0.061	2.07 ± 0.068	2.04 ± 0.041
SKKYQLADWRIRPLSKP [RRP6]	1.68 ± 0.048	1.83 ± 0.048	1.3 ± 0.088	1.99 ± 0.049
GQIITLFSSRRLQAKRL [RMP1]	2.78 ± 0.078	2.76 ± 0.052	2.89 ± 0.051	2.65 ± 0.064
